B1: Hammerhead Ribozyme (parent)
chain: ACCGGAUGUGCUUUCCGGUCUGAUGAGUCCGUGAGGACGAAACAG

Variants of: B1
Experiment: self-cleavage, relative activity (ratio to wild type); higher = more cleavage; co-transcriptional

Variant	self-cleavage
ACCGGGUGUGCUUUCCGGUCUGAUGACUCCGUGAGGACGAAACAG [A6G G27C]	0.45
ACCGGGUGUGCUUUCCGGUCUGAUGAGUCCGUGAAGACGAAACAG [A6G G35A]	0.302
ACCGGCUGUGCUUCCCGGUCUGAUGAGUCCGUGAGGACGAAACAG [A6C U14C]	0.495
ACCGGCUGUGCUUGCCGGUCUGAUGAGUCCGUGAGGACGAAACAG [A6C U14G]	0.508
ACCGGCUGUGCUUACCGGUCUGAUGAGUCCGUGAGGACGAAACAG [A6C U14A]	0.536
ACCGGCUGUGCUUUCCGGUCUGAUGAGACCGUGAGGACGAAACAG [A6C U28A]	0.191
ACCGGCUGUGCUUUCCGGUCUGAUGAGCCCGUGAGGACGAAACAG [A6C U28C]	0.604
ACCGGCUGUGCUUUCCGGUCUGAUGAGGCCGUGAGGACGAAACAG [A6C U28G]	0.354
ACCGGGUGUGCUUUCCGGUCUGAUGGGUCCGUGAGGACGAAACAG [A6G A26G]	0.303
ACCGGGUGUGCUUUCCGGUCUGAUGCGUCCGUGAGGACGAAACAG [A6G A26C]	0.396
ACCGGGUGUGCUUUCCGGUCUGAUGUGUCCGUGAGGACGAAACAG [A6G A26U]	0.71
ACCGGCUGUGCUUUCCGGUCAGAUGAGUCCGUGAGGACGAAACAG [A6C U21A]	0.475
ACCGGCUGUGCUUUCCGGUCCGAUGAGUCCGUGAGGACGAAACAG [A6C U21C]	0.389
ACCGGCUGUGCUUUCCGGUCGGAUGAGUCCGUGAGGACGAAACAG [A6C U21G]	0.415
ACCGGGUGUGUUUUCCGGUCUGAUGAGUCCGUGAGGACGAAACAG [A6G C11U]	0.796
ACCGGGUGUGGUUUCCGGUCUGAUGAGUCCGUGAGGACGAAACAG [A6G C11G]	0.921
ACCGGGUGUGAUUUCCGGUCUGAUGAGUCCGUGAGGACGAAACAG [A6G C11A]	0.965
ACCGGCUGUGCUUUCCGGUCUGAUGAGUCCGUGAGUACGAAACAG [A6C G36U]	0.34
ACCGGGUGUGCUUUCCGGUCUGAUGAGUCCGUGAGGACGAAAGAG [A6G C43G]	0.284

Variant	self-cleavage
ACCGGGUGUGCUUUCCGGUCUGAUGAGUCCGUGAGGACGAAAUAG [A6G C43U]	0.321
ACCGGGUGUGCUUUCCGGUCUGAUGAGUCCGUGAGGACGAAAAAG [A6G C43A]	0.217
ACCGGGUGUGCUUUCCGGUCUGAUGAGUCCGUGAGGACGAACCAG [A6G A42C]	0.268
ACCGGGUGUGCUUUCCGGUCUGAUGAGUCCGUGAGGACGAAUCAG [A6G A42U]	0.219
ACCGGGUGUGCUUUCCGGUCUGAUGAGUCCGUGAGGACGAAGCAG [A6G A42G]	0.275
ACCGGCUGUGCUUUCCGGUCUGAUGAGUCCGUGAGGACCAAACAG [A6C G39C]	0.368
ACCGGCUGUGCUUUCCGGUCUGAUGAGUCCGUGAGGACUAAACAG [A6C G39U]	0.271
ACCGGCUGUGCUUUCCGGUCUGAUGAGUCCGUGAGGACAAAACAG [A6C G39A]	0.311
ACCGGCUGUGCUUUCCGGGCUGAUGAGUCCGUGAGGACGAAACAG [A6C U19G]	0.269
ACCGGCUGUGCUUUCCGGCCUGAUGAGUCCGUGAGGACGAAACAG [A6C U19C]	0.397
ACCGGCUGUGCUUUCCGGACUGAUGAGUCCGUGAGGACGAAACAG [A6C U19A]	0.265
ACCGGGUGUGCUUUCCGGUCUGAUGAGUCCGUGAGGACGGAACAG [A6G A40G]	0.213
ACCGGGUGUGCUUUCCGGUCUGAUGAGUCCGUGAGGACGUAACAG [A6G A40U]	0.247
ACCGGGUGUGCUUUCCGGUCUGAUGAGUCCGUGAGGACGCAACAG [A6G A40C]	0.355
ACCGGGUGUGCUUUCCGGUCUUAUGAGUCCGUGAGGACGAAACAG [A6G G22U]	0.28
ACCGGGUGUGCUUUCCGGUCUAAUGAGUCCGUGAGGACGAAACAG [A6G G22A]	0.239
ACCGGGUGUGCUUUCCGGUCUCAUGAGUCCGUGAGGACGAAACAG [A6G G22C]	0.284
ACCGGGUGUGCUUUCCGGUUUGAUGAGUCCGUGAGGACGAAACAG [A6G C20U]	0.432
ACCGGGUGUGCUUUCCGGUAUGAUGAGUCCGUGAGGACGAAACAG [A6G C20A]	0.4

Variant	self-cleavage
ACCGGGUGUGCUUUCCGGUGUGAUGAGUCCGUGAGGACGAAACAG [A6G C20G]	0.236
ACCGGGUGUGCUUUCCGGUCUGAUGAGUCCAUGAGGACGAAACAG [A6G G31A]	0.853
ACCGGGUGUGCUUUCCGGUCUGAUGAGUCCUUGAGGACGAAACAG [A6G G31U]	0.945
ACCGGGUGUGCUUUCCGGUCUGAUGAGUCCCUGAGGACGAAACAG [A6G G31C]	0.979
ACCGGCGGUGCUUUCCGGUCUGAUGAGUCCGUGAGGACGAAACAG [A6C U7G]	0.392
ACCGGCAGUGCUUUCCGGUCUGAUGAGUCCGUGAGGACGAAACAG [A6C U7A]	0.311
ACCGGCCGUGCUUUCCGGUCUGAUGAGUCCGUGAGGACGAAACAG [A6C U7C]	0.577
ACCGGCUGUGCUGUCCGGUCUGAUGAGUCCGUGAGGACGAAACAG [A6C U13G]	0.673
ACCGGCUGUGCUCUCCGGUCUGAUGAGUCCGUGAGGACGAAACAG [A6C U13C]	0.598
ACCGGCUGUGCUAUCCGGUCUGAUGAGUCCGUGAGGACGAAACAG [A6C U13A]	0.906
ACCGGCUGUGCUUUCCGGUCUGAUGAGUCCGUGAGGACGAAACAA [A6C G45A]	0.384
ACCGGCUGUGCUUUCCGGUCUGAUGAGUCCGUGAGGACGAAACAU [A6C G45U]	0.44
ACCGGCUGUGCUUUCCGGUCUGAUGAGUCCGUGAGGACGAAACAC [A6C G45C]	0.433
ACCGGGUGUGCUUUCCGGUCUGAUCAGUCCGUGAGGACGAAACAG [A6G G25C]	0.283
ACCGGGUGUGCUUUCCGGUCUGAUAAGUCCGUGAGGACGAAACAG [A6G G25A]	0.263
ACCGGGUGUGCUUUCCGGUCUGAUUAGUCCGUGAGGACGAAACAG [A6G G25U]	0.194
ACCGGGUGUGCUUUCCGGUCUGAUGAGUCCGUGAGGACGACACAG [A6G A41C]	0.299
ACCGGGUGUGCUUUCCGGUCUGAUGAGUCCGUGAGGACGAGACAG [A6G A41G]	0.266
ACCGGGUGUGCUUUCCGGUCUGAUGAGUCCGUGAGGACGAUACAG [A6G A41U]	0.273

Source: the RNAGym collection of RNA variant scans (doi:10.7554/elife.80360)
